Target: MUC-1 gene product, the membrane mucin glycoprotein (polymorphic epithelial mucin or PEM) (human, UniProt P15941 24-1255)
Experiment: flow cytometry equilibrium binding on MCF7 cells

MUC-1 gene product, the membrane mucin glycoprotein (polymorphic epithelial mucin or PEM), sequence (P15941 24-1255): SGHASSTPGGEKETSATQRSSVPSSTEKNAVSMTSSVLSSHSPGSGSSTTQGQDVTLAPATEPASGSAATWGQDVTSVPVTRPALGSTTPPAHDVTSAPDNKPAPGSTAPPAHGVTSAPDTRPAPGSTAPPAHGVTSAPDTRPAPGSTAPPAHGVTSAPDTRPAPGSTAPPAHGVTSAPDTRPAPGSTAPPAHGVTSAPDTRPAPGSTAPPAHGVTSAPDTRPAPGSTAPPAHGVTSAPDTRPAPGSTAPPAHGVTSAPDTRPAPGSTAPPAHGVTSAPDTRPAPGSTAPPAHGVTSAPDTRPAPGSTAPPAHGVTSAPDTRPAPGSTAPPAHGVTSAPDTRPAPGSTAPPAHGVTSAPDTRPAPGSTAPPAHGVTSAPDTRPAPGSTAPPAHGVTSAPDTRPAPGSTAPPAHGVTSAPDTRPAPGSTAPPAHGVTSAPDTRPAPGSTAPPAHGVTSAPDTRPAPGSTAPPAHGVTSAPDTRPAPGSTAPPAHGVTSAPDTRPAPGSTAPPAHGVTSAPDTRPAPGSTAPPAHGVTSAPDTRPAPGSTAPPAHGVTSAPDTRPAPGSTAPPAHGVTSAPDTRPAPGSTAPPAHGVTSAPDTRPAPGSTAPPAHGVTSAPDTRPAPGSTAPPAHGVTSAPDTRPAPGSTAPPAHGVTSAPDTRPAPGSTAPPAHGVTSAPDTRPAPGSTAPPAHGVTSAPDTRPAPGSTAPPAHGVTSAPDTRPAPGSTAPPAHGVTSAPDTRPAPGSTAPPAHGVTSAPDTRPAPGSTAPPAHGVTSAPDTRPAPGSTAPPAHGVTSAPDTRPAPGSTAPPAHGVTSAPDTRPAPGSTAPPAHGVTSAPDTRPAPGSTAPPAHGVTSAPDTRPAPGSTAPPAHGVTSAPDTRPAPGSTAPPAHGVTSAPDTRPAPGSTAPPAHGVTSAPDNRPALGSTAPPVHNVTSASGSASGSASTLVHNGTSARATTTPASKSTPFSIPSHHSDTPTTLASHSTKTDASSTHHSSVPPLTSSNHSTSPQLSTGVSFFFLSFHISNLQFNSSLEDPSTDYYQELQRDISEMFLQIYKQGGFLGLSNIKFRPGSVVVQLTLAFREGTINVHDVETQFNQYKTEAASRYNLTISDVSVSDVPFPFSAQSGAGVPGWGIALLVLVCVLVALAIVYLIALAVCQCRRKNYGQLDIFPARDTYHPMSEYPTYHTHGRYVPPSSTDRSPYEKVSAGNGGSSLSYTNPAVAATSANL

B1: huHMFG1 wild-type scFv 4.10W (scFv)
scFv: QVQLVQSGAEVKKPGASVKVSCKASGYTFSAYWIEWVRQAPGKGLEWVGEILPGSNNSRYNEKFKGRVTVTRDTSTNTAYMELSSLRSEDTAVYYCARSYDFAWFAYWGQGTLVTVSSGGGGSGGGGSGGGGSDIQMTQSPSSLSASVGDRVTITCKSSQSLLYSSNQKIYLAWYQQKPGKAPKLLIYWASTRESGVPSRFSGSGSGTDFTFTISSLQPEDIATYYCQQYYRYPRTFGQGTKVEIKR
B1 showed a Kd of 114 nM.

— patent US20060193849A1 (published 2006)
